Measurements reported in patent US20250236657A1 (TOSOH, published 2025).

Columns and labels:
[1] = molecular target: AAV2 S384A (adeno-associated virus serotype 2 (AAV2)) (UniProt P03135); experiment: affinity HPLC, POROS AAVX resin, linear pH gradient 6.0 to 2.0, AAV2 peak top
[2] = molecular target: AAV2 H271A (adeno-associated virus serotype 2 (AAV2)) (UniProt P03135); experiment: as above
[3] = molecular target: AAV2 R471A (adeno-associated virus serotype 2 (AAV2)) (UniProt P03135); experiment: as above
[4] = molecular target: AAV2 D529E (adeno-associated virus serotype 2 (AAV2)) (UniProt P03135); experiment: as above
[5] = molecular target: AAV2 N382A (adeno-associated virus serotype 2 (AAV2)) (UniProt P03135); experiment: as above
[6] = molecular target: AAV2 H271Q (adeno-associated virus serotype 2 (AAV2)) (UniProt P03135); experiment: as above
[7] = molecular target: AAV2 S267T (adeno-associated virus serotype 2 (AAV2)) (UniProt P03135); experiment: as above
[8] = molecular target: AAV2 Q263A (adeno-associated virus serotype 2 (AAV2)) (UniProt P03135); experiment: as above
[9] = molecular target: AAV2 D528A (adeno-associated virus serotype 2 (AAV2)) (UniProt P03135); experiment: as above
[10] = molecular target: AAV2 T503S (adeno-associated virus serotype 2 (AAV2)) (UniProt P03135); experiment: as above
[11] = molecular target: AAV2 H271F (adeno-associated virus serotype 2 (AAV2)) (UniProt P03135); experiment: as above
[12] = molecular target: AAV2 S267A (adeno-associated virus serotype 2 (AAV2)) (UniProt P03135); experiment: as above
[13] = molecular target: AAV2 S264A (adeno-associated virus serotype 2 (AAV2)) (UniProt P03135); experiment: as above
[14] = molecular target: AAV2 G383A (adeno-associated virus serotype 2 (AAV2)) (UniProt P03135); experiment: as above
[15] = molecular target: AAV2 (wild type), serotype 2 AAV with capsid region VP1 of SEQ ID NO: 99 (adeno-associated virus serotype 2 (AAV2)) (UniProt P03135); experiment: as above
[16] = molecular target: AAV2 H271T (adeno-associated virus serotype 2 (AAV2)) (UniProt P03135); experiment: as above
[17] = molecular target: AAV2 D529A (adeno-associated virus serotype 2 (AAV2)) (UniProt P03135); experiment: as above
[18] = molecular target: AAV2 Q385A (adeno-associated virus serotype 2 (AAV2)) (UniProt P03135); experiment: as above
[19] = molecular target: AAV2 E499A (adeno-associated virus serotype 2 (AAV2)) (UniProt P03135); experiment: as above
[20] = molecular target: AAV2 R471A (adeno-associated virus serotype 2 (AAV2)) (UniProt P03135); experiment: affinity HPLC, POROS AAVX resin, linear pH gradient 4.5 to 2.2, AAV2 peak top
[21] = molecular target: AAV2 D529E (adeno-associated virus serotype 2 (AAV2)) (UniProt P03135); experiment: as above
[22] = molecular target: AAV2 H271Q (adeno-associated virus serotype 2 (AAV2)) (UniProt P03135); experiment: as above
[23] = molecular target: AAV2 S267T (adeno-associated virus serotype 2 (AAV2)) (UniProt P03135); experiment: as above
[24] = molecular target: AAV2 Q263A (adeno-associated virus serotype 2 (AAV2)) (UniProt P03135); experiment: as above
[25] = molecular target: AAV2 T503S (adeno-associated virus serotype 2 (AAV2)) (UniProt P03135); experiment: as above
[26] = molecular target: AAV2 H271F (adeno-associated virus serotype 2 (AAV2)) (UniProt P03135); experiment: as above
[27] = molecular target: AAV2 H271T (adeno-associated virus serotype 2 (AAV2)) (UniProt P03135); experiment: as above
[28] = molecular target: AAV2 E499A (adeno-associated virus serotype 2 (AAV2)) (UniProt P03135); experiment: as above

Measured: AAVX column elution time

POROS Capture Select AAVX Affinity Resin (manufactured by Thermo Fisher Scientific)
48 min: [21] | [23] | [24] | [25]
59.4 min: [2] | [3] | [10]
59.3 min: [1] | [4] | [6] | [8] | [11] | [12] | [14] | [15] | [16] | [17] | [18] | [19]
59.1 min: [9]
48.1 min: [20] | [22] | [26]
47.8 min: [28]
59.2 min: [5] | [7] | [13]
47.9 min: [27]
